Non-standard residues stand in square brackets, D forms with d. No end group written: not given here. Phe(4-NH2) = Nc1ccc(C[C@H](N)C(=O)O)cc1; hArg = N=C(N)NCCCC[C@H](N)C(=O)O; 4Pal = N[C@@H](Cc1ccncc1)C(=O)O; Cha = N[C@@H](CC1CCCCC1)C(=O)O; 4Amb = NCc1ccc(C(=O)O)cc1; Orn = NCCC[C@H](N)C(=O)O; Ac3c = NC1(C(=O)O)CC1; Aib = CC(C)(N)C(=O)O
T1: human Y2 receptor (human, UniProt P49146 1-381)
T1 construct: whole, on cells; used as membrane fraction of hY2R/CHO cells; also called human NPY2R; hY2R
T1 sequence (looked up): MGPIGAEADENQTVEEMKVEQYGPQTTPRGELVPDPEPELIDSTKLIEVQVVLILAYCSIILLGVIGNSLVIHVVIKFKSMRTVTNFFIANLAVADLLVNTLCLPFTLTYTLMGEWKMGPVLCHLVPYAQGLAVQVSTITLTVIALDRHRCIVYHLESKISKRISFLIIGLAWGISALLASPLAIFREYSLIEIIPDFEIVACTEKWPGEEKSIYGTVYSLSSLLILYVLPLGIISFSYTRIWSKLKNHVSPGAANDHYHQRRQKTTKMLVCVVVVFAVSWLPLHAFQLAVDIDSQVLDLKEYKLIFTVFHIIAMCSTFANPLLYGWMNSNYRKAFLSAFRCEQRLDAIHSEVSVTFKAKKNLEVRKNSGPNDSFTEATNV

B1: 4-Aminomethylbenzoyl-[Orn25, Ala26, Ile28,31]-PYY(25-36) (peptide)
peptide: [4Amb][Orn]AYINLITRQRY-NH2
modifications: N-terminus assumed
SMILES: CC[C@H](C)[C@H](NC(=O)[C@H](Cc1ccc(O)cc1)NC(=O)[C@H](C)NC(=O)[C@H](CCCN)NC(=O)c1ccc(CN)cc1)C(=O)N[C@@H](CC(N)=O)C(=O)N[C@@H](CC(C)C)C(=O)N[C@H](C(=O)N[C@H](C(=O)N[C@@H](CCCNC(=N)N)C(=O)N[C@@H](CCC(N)=O)C(=O)N[C@@H](CCCNC(=N)N)C(=O)N[C@@H](Cc1ccc(O)cc1)C(N)=O)[C@@H](C)O)[C@@H](C)CC
notes: also called compound No. 10
B2: Ac-[D-Tyr21, D-Pro24, Cha27,28,36, Aib31]-PYY(21-36) (peptide)
peptide: Ac-[dY]AS[dP]RH[Cha][Cha]NL[Aib]TRQR[Cha]-NH2
SMILES: CC(=O)N[C@H](Cc1ccc(O)cc1)C(=O)N[C@@H](C)C(=O)N[C@@H](CO)C(=O)N1CCC[C@@H]1C(=O)N[C@@H](CCCNC(=N)N)C(=O)N[C@@H](Cc1c[nH]cn1)C(=O)N[C@@H](CC1CCCCC1)C(=O)N[C@@H](CC1CCCCC1)C(=O)N[C@@H](CC(N)=O)C(=O)N[C@@H](CC(C)C)C(=O)NC(C)(C)C(=O)N[C@H](C(=O)N[C@@H](CCCNC(=N)N)C(=O)N[C@@H](CCC(N)=O)C(=O)N[C@@H](CCCNC(=N)N)C(=O)N[C@@H](CC1CCCCC1)C(N)=O)[C@@H](C)O
notes: also called compound No. 121
B3: Ac-[Gly23-ψ[(E)-CH═CH]-Leu24, Cha27,28,36, Aib31]-PYY(23-36) (peptide)
peptide: Ac-GLRH[Cha][Cha]NL[Aib]TRQR[Cha]-NH2
modifications: also: Gly1-Leu2 amide bond replaced by (E)-CH=CH alkene
notes: -CONH- bond between Gly23 and Leu24 is substituted by (E) type alkene; also called compound No. 122
B4: 4-Aminomethylbenzoyl-[Ala26, Ile28,31, Har33]-PYY(25-36) (peptide)
peptide: [4Amb]RAYINLIT[hArg]QRY-NH2
modifications: N-terminus assumed
SMILES: CC[C@H](C)[C@H](NC(=O)[C@H](Cc1ccc(O)cc1)NC(=O)[C@H](C)NC(=O)[C@H](CCCNC(=N)N)NC(=O)c1ccc(CN)cc1)C(=O)N[C@@H](CC(N)=O)C(=O)N[C@@H](CC(C)C)C(=O)N[C@H](C(=O)N[C@H](C(=O)N[C@@H](CCCCNC(=N)N)C(=O)N[C@@H](CCC(N)=O)C(=O)N[C@@H](CCCNC(=N)N)C(=O)N[C@@H](Cc1ccc(O)cc1)C(N)=O)[C@@H](C)O)[C@@H](C)CC
notes: also called compound No. 11
B5: Ac-[D-Pro24, Cha27,28,36, Acpc31]-PYY(23-36) (peptide)
peptide: Ac-S[dP]RH[Cha][Cha]NL[Ac3c]TRQR[Cha]-NH2
SMILES: CC(=O)N[C@@H](CO)C(=O)N1CCC[C@@H]1C(=O)N[C@@H](CCCNC(=N)N)C(=O)N[C@@H](Cc1c[nH]cn1)C(=O)N[C@@H](CC1CCCCC1)C(=O)N[C@@H](CC1CCCCC1)C(=O)N[C@@H](CC(N)=O)C(=O)N[C@@H](CC(C)C)C(=O)NC1(C(=O)N[C@H](C(=O)N[C@@H](CCCNC(=N)N)C(=O)N[C@@H](CCC(N)=O)C(=O)N[C@@H](CCCNC(=N)N)C(=O)N[C@@H](CC2CCCCC2)C(N)=O)[C@@H](C)O)CC1
notes: also called compound No. 131
B6: 4-Aminomethylbenzoyl-[Ala26, Ile28,31, Phe(4NH2)36]-PYY(25-36) (peptide)
peptide: [4Amb]RAYINLITRQR[Phe(4-NH2)]-NH2
modifications: N-terminus assumed
SMILES: CC[C@H](C)[C@H](NC(=O)[C@H](Cc1ccc(O)cc1)NC(=O)[C@H](C)NC(=O)[C@H](CCCNC(=N)N)NC(=O)c1ccc(CN)cc1)C(=O)N[C@@H](CC(N)=O)C(=O)N[C@@H](CC(C)C)C(=O)N[C@H](C(=O)N[C@H](C(=O)N[C@@H](CCCNC(=N)N)C(=O)N[C@@H](CCC(N)=O)C(=O)N[C@@H](CCCNC(=N)N)C(=O)N[C@@H](Cc1ccc(N)cc1)C(N)=O)[C@@H](C)O)[C@@H](C)CC
notes: also called compound No. 12
B7: Ac-[Glu23, D-Pro24, Pya(4)26, Cha27,36, Tyr28, Lys30, Aib31]-PYY(23-36) (peptide)
peptide: Ac-E[dP]R[4Pal][Cha]YNK[Aib]TRQR[Cha]-NH2
SMILES: CC(=O)N[C@@H](CCC(=O)O)C(=O)N1CCC[C@@H]1C(=O)N[C@@H](CCCNC(=N)N)C(=O)N[C@@H](Cc1ccncc1)C(=O)N[C@@H](CC1CCCCC1)C(=O)N[C@@H](Cc1ccc(O)cc1)C(=O)N[C@@H](CC(N)=O)C(=O)N[C@@H](CCCCN)C(=O)NC(C)(C)C(=O)N[C@H](C(=O)N[C@@H](CCCNC(=N)N)C(=O)N[C@@H](CCC(N)=O)C(=O)N[C@@H](CCCNC(=N)N)C(=O)N[C@@H](CC1CCCCC1)C(N)=O)[C@@H](C)O
notes: also called compound No. 139

Key:
[1] = biological target: T1, human Y2 receptor; assay: RBA: [125I]-PYY displacement, hY2R/CHO membranes
Method: After incubation at room temperature for 60 minutes, the mixture was filtered through the cell harvester FilterMate (PerkinElmer) using UniFilter-96 GF/C treated with polyethylenimine (PEI) solution (20 mM Tris, 0.3% PEI, pH 7.4), and the filter was washed 3 times with a filtering buffer (50 mM Tris, 5 mM MgCl₂, 150 mM NaCl, 0.03% NaN₃, 0.05% CHAPS, pH 7.4). Thereafter, UniFilter-96 GF/C was dried in a mechanical drier for 1 hour, 15 μl of the liquid scintillator MicroScint O (PerkinElmer) was added to each well, and a measurement was taken using TopCount (PerkinElmer). The data obtained were analyzed using Prism to calculate the IC₅₀ value.

[2] = biological target: T1, human Y2 receptor; assay: cell-based or functional assay

| Binder | IC50 Ratio (vs PYY(3-36)) [1] | GBA EC50 Ratio (vs PYY(3-36)), [35S]GTPγS [2] |
| --- | --- | --- |
| B1 | 39 ratio | 18 ratio |
| B2 | 1.2 ratio | 1.3 ratio |
| B3 | 17 ratio | 14 ratio |
| B4 | 260 ratio | 63 ratio |
| B5 | 7 ratio | 3.6 ratio |
| B6 | 12 ratio | 5 ratio |
| B7 | 2.2 ratio | 1.2 ratio |

Reference: US20120172293A1 (Takeda / Millennium, published 2012)
